The values below come from patent US20250002563A1 (published 2025).

For orientation: Kd means the equilibrium constant for the complex coming apart. Higher therefore signals weaker binding.

The target in this test is RBD (UniProt P0DTC2 319-541). In words: SPR. Background: In SPR one partner is held on a chip, and binding of the other changes the refractive index at the surface.

B1: Nb21 (VHH)
VHH: QVQLVESGGGLVQAGGSLRLSCAVSGLGAHRVGWFRRAPGKEREFVAAIGANGGNTNYLDSVKGRFTISRDNAKNTIYLQMNSLKPQDTAVYYCAARDIETAEYTYWGQGTQVTVSS
Regarding B1, the Kd is less than 1 pM.
